Results from patent US20210340232A1, “MONOCLONAL ANTIBODIES AGAINST HUMAN DICKKOPF3 AND USES THEREOF” (Board of Regents, The University of Texas System, priority 2018, published 2021).

Columns and labels:
DKK3 = target: T1, DKK3 (Homo sapiens, UniProt Q9UBP4); assay: Cell surface binding of His-tagged rhDKK3 by flow cytometry; details: BxPC3 or L3.6p1 cells, rhDKK3 10 μg/ml, JM6-6-1 70 μg/ml
T1 construct: purchased R&D
Experimental: (§1) FIGS. 11A-C. DKK3 expression in autochthonous model of PDAC and effects of DKK3 mAb on cell surface binding of DKK3 and orthotopic model. (FIG. 11A) DKK3 expression was measured by qPCR in pancreatic tumors from P48-Cre; Kras LSL-G12D;Trp53fl/fl and P48-Cre; Kras LSL-G12D;Trp53fl/+ mice that are either wild type DKK3 or heterozygous or homozygous DKK3-null. Relative expression of DKK3 mRNA in DKK3+/− hetero mice is 53% of DKK3^+/+ mice. (FIG. 11B) DKK3 cell surface binding was assessed by incubating BxPC3 or L3.6p1 cells with His-tagged rhDKK3 (10 μg/ml) with or without JM6-6-1 (70 μg/ml) and positive cells were sorted by flow cytometry. (FIG. 11C) Mice bearing orthotopic BxPC3 tumors were treated with DKK3 mAb JM6-6-1 (5 mg/kg i.p. once every 5 days). Overall tumor progression was measured every 3-4 days by IVIS imaging.
Binding assay. Cell surface binding of DKK3 was performed using flow cytometry. In brief, BxPC3 or L3.6p1 cells (0.5×10^6) were incubated for 30 min with His-labeled rhDKK3 (10 μg/mL) with or without JM6-6-1 (70 μg/mL). After washing with binding buffer (3% BSA in PBS), cells were stained with 1:100 anti-His antibody (abCam) for 30 min and followed by staining with secondary antibody conjugated with Dylight488 for 20 min. The cells were fixed with 2% paraformaldehyde and were subjected to fluorescent signal detection by BD FACSCalibur.

BxPC3 orthotopic tumors = assay: Orthotopic BxPC3 tumors without HPSCs in nude mice; format: in vivo, mouse; details: BxPC3 alone; 5 mg/kg i.p. once every 5 days; vs PBS or isotype control mAb
Experimental: as §1
An orthotopic nude mouse model of PDAC using BxPC3 cancer cells labeled with firefly luciferase (BxPC3-FL) co-injected with HPSCs has been previously described (Hwang et al., 2008). Mice received intrapancreatic injections of BxPC3-FL (1×10^6 per mouse) with HPSC-shControl or HPSC-shDKK3 in a tumor-to-stroma ratio of 1:0 or 1:3 in 50-μL of HBSS and tumor growth was monitored using IVIS imaging (Hwang et al., 2008). In addition, a syngeneic immunocompetent DKK3 null model was used, provided by Dr. C. […]

T1 sequence (Q9UBP4 22-350): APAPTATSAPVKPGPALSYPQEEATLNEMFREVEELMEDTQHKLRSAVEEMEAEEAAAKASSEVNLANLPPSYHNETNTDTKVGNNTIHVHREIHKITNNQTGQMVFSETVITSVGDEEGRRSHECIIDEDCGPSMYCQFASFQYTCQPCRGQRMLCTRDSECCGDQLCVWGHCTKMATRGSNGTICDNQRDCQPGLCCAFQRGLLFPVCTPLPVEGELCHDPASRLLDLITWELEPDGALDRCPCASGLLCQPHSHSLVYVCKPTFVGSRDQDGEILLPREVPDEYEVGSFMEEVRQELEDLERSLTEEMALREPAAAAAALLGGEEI

B1: JM6-6-1: monoclonal antibody against human DKK3; heavy chain variable SEQ ID NO: 19, light chain variable SEQ ID NO: 20 (antibody, V domains shown)
VH: EVKLVESGGGLVKPGGSLKLSCAASGFTFTIEYMAWIRQTPEKRLEWVASISSGGDDIYYADNVKGRFTISRDNAKNTLYLQMSSLKSEDTAIYYCSRSLSDWGQGTTLTVSSAKTTPPSDYPLA
VL: MTQTPLSLPVSLGDQASISCRSSQSILHSNGHTYLEWYLQKPGQSPKLLIYKVSNRFSGVPDRFSGSGSGTDFTLKISRVEAEDLGVYYCFQGSHVPFTFGSGTKLEIERADAAQ
B1 was tested, and the “blocking of rhDKK3 binding to PDAC cells” value (DKK3) was “effective in blocking binding of rhDKK3 to PDAC cells” and the “tumor response without HPSCs” value (BxPC3 orthotopic tumors) was “no significant change”.
